Results from paper PMC8463877 (2021).

Key:
[1] = target: T1, α-synuclein amyloid fibrils (unlabeled) (UniProt P37840 1-140); assay: 7 °C
[2] = target: T1, α-synuclein amyloid fibrils (unlabeled); assay: 10 °C
[3] = target: T1, α-synuclein amyloid fibrils (unlabeled); assay: 17 °C
[4] = target: T1, α-synuclein amyloid fibrils (unlabeled); assay: 30 °C
[5] = target: T1, α-synuclein amyloid fibrils (unlabeled); assay: 37 °C

B1: GFP-labeled αB-crystallin (αB-c-TEV site-GFP-His tag) (natural protein)
chain: MDIAIHHPWIRRPFFPFHSPSRLFDQFFGEHLLESDLFPTSTSLSPFYLRPPSFLRAPSWFDTGLSEMRLEKDRFSVNLDVKHFSPEELKVKVLGDVIEVHGKHEERQDEHGFISREFHRKYRIPADVDPLTITSSLSSDGVLTVNGPRKQVSGPERTIPITREEKPAVTAAPKK
For B1, the Kd [1] was 45.3 µM, the Kd [2] was 12.3 µM and the Kd [3] was 6.1 µM. It also gave a Kd [4] of 0.0575 µM and a Kd [5] of under 0.0103 µM.
